The target of the assay is Aglu1, α-glucosidase of family GH31 from an unknown hyperthermophilic archaeon (unknown hyperthermophilic archaeon (metagenome; family Sulfolobaceae, unclassified genus)). Description: SEC; gel filtration on Superose 6 10/300, isocratic 20 mM Tris HCl pH 8.0; markers thyroglobulin, apoferritin, BSA, cytochrome C; native mass 462 kDa against 80 kDa for the monomer.

As for “Aglu1, α-glucosidase of family GH31 from an unknown hyperthermophilic archaeon (enzyme)”, the stoichiometry N (usually a count of units in the complex or per binding partner) was found to be 6.

These data come from article PMC9505709, “Valorization of Biomasses from Energy Crops for the Discovery of Novel Thermophilic Glycoside Hydrolases through Metagenomic Analysis” (International Journal of Molecular Sciences, 2022).
